Laboratory results taken from patent US20240124563A1.

B1: Tab106 (YP218, hIgG1) (antibody, V domains shown)
VH: QQQLEESGGGLVKPEGSLTLTCKASGFDLGFYFYACWVRQAPGKGLEWIACIYTAGSGSTYYASWAKGRFTISKASSTTVTLQMTSLAAADTATYFCARSTANTRSTYYLNLWGPGTLVTVSS
VL: DVVMTQTPASVSEPVGGTVTIKCQASQRISSYLSWYQQKPGQRPKLLIFGASTLASGVPSRFKGSGSGTEYTLTISDLECADAATYYCQSYAYFDSNNWHAFGGGTEVVVRT
B2: Tab020 (YP223, rabbitIgG1) (antibody, V domains shown)
VH: QEQLEESGGDLVQPEGSLTLTCKASGLDFSSSYWICWVRQAPGKGLEWIGCRHTFTANTWSASWVNGRFTISRSTSLGTVDLKMTSLTAADTATYFCARDESNNDGWDFKLWGPGTLVTVSS
VL: AYDMTQTPASVSAAVGGTVTIKCQASQSISNYLAWYQQKPGQPPKLLIYQASTLAPGVSSRFKGSGSGTEFTLTISGVECADAATYYCQQGYTSSNVENVFGGGTGVVVGD
B3: Tab107 (YP3, hIgG1) (antibody, V domains shown)
VH: QEQLVESGGGLVQPGASLTLTCTASGIDFSRYYMCWVRQAPGKGLEGIACIYIGGSGSTYYASWAKGRFTISKASSTTVTLQMTSLTAADTATYFCARGTNLNYIFRLWGPGTLVTVSS
VL: DVVMTQTPSPVSAAVGGTVTIKCQASQSINNGLAWYQQKPGQPPRLLIYSASNLESGVPSRFKGSGSGTEFTLTISDLECDDAATYYCQCIWDGNSYVNAFGGGTEVVVRT

Key:
[1] = target: monkey MSLN full-length protein on HEK293T cells (monkey); assay: FACS, HEK293T-monkey-MSLN cells, antibody 0.16 nM
[2] = target: human MSLN-R3 protein on HEK293T cells (human) (UniProt Q13421); assay: FACS, HEK293T-hMSLN R3 cells
human MSLN-R3 protein on HEK293T cells (human), sequence (Q13421 495-614, form in doubt): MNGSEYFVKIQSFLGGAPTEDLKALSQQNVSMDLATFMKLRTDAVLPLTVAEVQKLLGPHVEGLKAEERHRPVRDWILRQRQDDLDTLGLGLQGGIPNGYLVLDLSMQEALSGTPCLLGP

[3] = target: monkey MSLN full-length protein on HEK293T cells (monkey); assay: FACS, HEK293T-monkey-MSLN cells, antibody 0.032 nM
[4] = target: monkey MSLN full-length protein on HEK293T cells (monkey); assay: FACS, HEK293T-monkey-MSLN cells, antibody 0.0064 nM
[5] = target: monkey MSLN full-length protein on HEK293T cells (monkey); assay: FACS, HEK293T-monkey MSLN cells
[6] = target: monkey MSLN full-length protein on HEK293T cells (monkey); assay: FACS, HEK293T-monkey-MSLN cells, antibody 4 nM
[7] = target: monkey MSLN full-length protein on HEK293T cells (monkey); assay: FACS, HEK293T-monkey-MSLN cells, antibody 100 nM
[8] = target: monkey MSLN full-length protein on HEK293T cells (monkey); assay: FACS, HEK293T-monkey-MSLN cells, antibody 0.8 nM
[9] = target: monkey MSLN full-length protein on HEK293T cells (monkey); assay: FACS, HEK293T-monkey-MSLN cells, antibody 0.00128 nM
[10] = target: monkey MSLN full-length protein on HEK293T cells (monkey); assay: FACS, HEK293T-monkey-MSLN cells, antibody 20 nM

Binder	FACS signal (MFI) [1]	Mean Fluorescence Intensity of Cells [2]	FACS signal (MFI) [3]	FACS signal (MFI) [4]	EC50 [5] [nM]	Max MFI [5]	FACS signal (MFI) [6]	FACS signal (MFI) [7]	FACS signal (MFI) [8]	FACS signal (MFI) [9]	FACS signal (MFI) [10]
B1	313	1690	142	100	1.15	8640	2440	3290	860	90	2660
B2	86		85	85			90	126	88	85	100
B3	288		131	96			3140	3930	918	119	3650
